In the supplement of paper PMC10724198 one finds protein stability index data, which are given here for 50 sequences.

For this series, the system named is Saccharomyces cerevisiae. Kind of series: protein stability index of tFT-peptide fusion (C-terminal peptide) (PSI (0-1 scale)); higher = more stable (slower turnover). As to conditions: temperature: 30 C. Here is the method:
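MPS profiling in S. cerevisiae of the yeast C-terminome library: the last 12 aa of each annotated ORF are fused to the C-terminus of a sfGFP-mCherry timer, after a GGGS linker. Cells are FACS-sorted into 8 mCherry/sfGFP bins and deep-sequenced. PSI runs from 0 (unstable) to 1 (stable); wild type and das1Δ backgrounds, two technical replicates each.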

Where [1] appears, read: genetic background: das1 deletion.

± gives the standard deviation of the averaged measurements.

For the sequence RSWDEFIGFKAY [CPA2 C-terminal 12 aa], the protein stability index runs as follows: under setting [1], 0.745 ± 0.03; (genetic background: wild type) 0.615 ± 0.041.

Turning to RTAAESIANDRK [FRD1 C-terminal 12 aa], the protein stability index under setting [1] was found to be 0.674 ± 0.0068 and the protein stability index (genetic background: wild type) came out at 0.708 ± 0.05.

Take RTLGYSNNNGNN [UBX6 C-terminal 12 aa]: the protein stability index is, setting by setting: under setting [1], 0.679 ± 0.019; (genetic background: wild type) 0.678 ± 0.0087.

Consider RTNHIYNYENSD [DFG16 C-terminal 12 aa], for which the protein stability index was 0.703 ± 0.0077 under setting [1] and 0.672 ± 0.011 (genetic background: wild type).

With RVRTLARKHLSK [TRS20 C-terminal 12 aa], the protein stability index reads like this: under setting [1], 0.692 ± 0.02; (genetic background: wild type) 0.686 ± 0.018.

In the case of SAEGSDVLYMQK [LSM7 C-terminal 12 aa], the protein stability index was determined as 0.671 ± 0.0093 under setting [1] and 0.6739 ± 0.0053 (genetic background: wild type).

Turning to SAENEESKEKCE [LAG1 C-terminal 12 aa], the protein stability index worked out at 0.696 ± 0.051 under setting [1] and 0.658 ± 0.021 (genetic background: wild type).

Take SAIGSDIVNSIF [LSB1 C-terminal 12 aa]: the protein stability index by setting is: under setting [1], 0.7044 ± 0.0053; (genetic background: wild type) 0.676 ± 0.024.

In turn, SAQRDRRYRKRV [RPS17A C-terminal 12 aa] displayed a protein stability index under setting [1] of 0.6665 ± 0.0025 and a protein stability index (genetic background: wild type) of 0.69 ± 0.067.

Consider SCGCGSSFDIEN [ISA2 C-terminal 12 aa], for which the protein stability index is, setting by setting: under setting [1], 0.704 ± 0.015; (genetic background: wild type) 0.632 ± 0.0093.

SDDDVSSESEEE [BDF1 C-terminal 12 aa] showed a protein stability index under setting [1] of 0.6997 ± 0.0067 and a protein stability index (genetic background: wild type) of 0.658 ± 0.015.

For “SDGFANNRCQRK [YOR034C-A C-terminal 12 aa]”, the protein stability index by setting is: under setting [1], 0.658 ± 0.0075; (genetic background: wild type) 0.718 ± 0.051.

With SDVISEESYNEA [SVF1 C-terminal 12 aa], the protein stability index by setting is: under setting [1], 0.7069 ± 0.0026; (genetic background: wild type) 0.694 ± 0.0074.

Sequence SELQQIFPVSQQ [SPS100 C-terminal 12 aa] had a protein stability index under setting [1] of 0.706 ± 0.011 and a protein stability index (genetic background: wild type) of 0.689 ± 0.033.

In the case of SEPTNDDLDATK [MRX10 C-terminal 12 aa], the protein stability index worked out at 0.678 ± 0.033 under setting [1] and 0.675 ± 0.019 (genetic background: wild type).

For SESNDGESSDSD [RPA43 C-terminal 12 aa], the protein stability index runs as follows: under setting [1], 0.656 ± 0.021; (genetic background: wild type) 0.7176 ± 0.0024.

As for SFKAYVGLPTTG [PIC2 C-terminal 12 aa], the protein stability index stood at 0.706 ± 0.01 under setting [1] and 0.693 ± 0.009 (genetic background: wild type).

In the case of SFPVVEPMGGST [BDS1 C-terminal 12 aa], the protein stability index was 0.69 ± 0.012 under setting [1] and 0.727 ± 0.014 (genetic background: wild type).

On to SFRPKSSNNPFR [ENT4 C-terminal 12 aa], for which the protein stability index runs as follows: under setting [1], 0.734 ± 0.02; (genetic background: wild type) 0.674 ± 0.021.

In the case of SFRSSHFYSLIA [YLR217W C-terminal 12 aa], the protein stability index runs as follows: under setting [1], 0.691 ± 0.012; (genetic background: wild type) 0.331 ± 0.016.

In turn, SFTHQEQDTEMN [NAB2 C-terminal 12 aa] came in with a protein stability index under setting [1] of 0.708 ± 0.032 and a protein stability index (genetic background: wild type) of 0.736 ± 0.019.

For SFVTKKKAACYR [YIL025C C-terminal 12 aa], the protein stability index is, setting by setting: under setting [1], 0.717 ± 0.011; (genetic background: wild type) 0.706 ± 0.0072.

Turning to SGIVENDFENRS [YOR1 C-terminal 12 aa], the protein stability index is 0.707 ± 0.013 under setting [1] and 0.705 ± 0.084 (genetic background: wild type).

As for SGKLASKKRDKK [MRPL36 C-terminal 12 aa], the protein stability index reads like this: under setting [1], 0.684 ± 0.021; (genetic background: wild type) 0.651 ± 0.019.

In the case of SHHPHKNGKISF [YKR011C C-terminal 12 aa], the protein stability index is 0.719 ± 0.028 under setting [1] and 0.69647 ± 0.00034 (genetic background: wild type).

With SHPIDVNLQFIM [MCA1 C-terminal 12 aa], the protein stability index came to 0.735 ± 0.013 under setting [1] and 0.689 ± 0.039 (genetic background: wild type).

Consider SISHPENKVLHK [YNL195C C-terminal 12 aa], for which the protein stability index under setting [1] was 0.689 ± 0.0083 and the protein stability index (genetic background: wild type) turned out to be 0.699 ± 0.0077.

The sequence SIVYSWKENSSS [YGL217C C-terminal 12 aa] returned a protein stability index under setting [1] of 0.704 ± 0.031 and a protein stability index (genetic background: wild type) of 0.703 ± 0.015.

Consider SKGKNSESGGIF [PPR1 C-terminal 12 aa], for which the protein stability index runs as follows: under setting [1], 0.699 ± 0.026; (genetic background: wild type) 0.711 ± 0.054.

Turning to SKKSKKSKKSEE [MRH1 C-terminal 12 aa], the protein stability index is, setting by setting: under setting [1], 0.719 ± 0.0089; (genetic background: wild type) 0.695 ± 0.053.

SKNDSPKKKGWF [MAS2 C-terminal 12 aa] yielded a protein stability index under setting [1] of 0.694 ± 0.027 and a protein stability index (genetic background: wild type) of 0.702 ± 0.018.

For the sequence SLDVGKILDVTI [PSR1 C-terminal 12 aa], the protein stability index runs as follows: under setting [1], 0.686 ± 0.012; (genetic background: wild type) 0.662 ± 0.038.

On to SLFPSLETEDKK [MIH1 C-terminal 12 aa], for which the protein stability index stood at 0.674 ± 0.0077 under setting [1] and 0.671 ± 0.02 (genetic background: wild type).

For SLGSVFTILTDS [YGR228W C-terminal 12 aa], the protein stability index runs as follows: under setting [1], 0.72 ± 0.0074; (genetic background: wild type) 0.7206 ± 0.0043.

As for SLKDLIMQVTKM [CTO1 C-terminal 12 aa], the protein stability index under setting [1] came to 0.753 ± 0.046 and the protein stability index (genetic background: wild type) was determined as 0.654 ± 0.069.

For SLLFVGPLFLKV [YCL007C C-terminal 12 aa], the protein stability index was 0.401 ± 0.016 under setting [1] and 0.423 ± 0.012 (genetic background: wild type).

As for SLRPQERNLYGL [NTH1 C-terminal 12 aa], the protein stability index was 0.691 ± 0.021 under setting [1] and 0.753 ± 0.095 (genetic background: wild type).

On to SLYMNISYILLF [YGR073C C-terminal 12 aa], for which the protein stability index runs as follows: under setting [1], 0.44985 ± 0.00042; (genetic background: wild type) 0.2066 ± 0.0013.

In turn, SMKPFKRRKPFF [PRP16 C-terminal 12 aa] registered a protein stability index under setting [1] of 0.69 ± 0.0092 and a protein stability index (genetic background: wild type) of 0.72 ± 0.0089.

In the case of SNNATHNCGNYF [YGR122W C-terminal 12 aa], the protein stability index was found to be 0.712 ± 0.049 under setting [1] and 0.764 ± 0.01 (genetic background: wild type).

Regarding SNPSSHIKKKGL [RRT6 C-terminal 12 aa], the protein stability index worked out at 0.682 ± 0.014 under setting [1] and 0.6362 ± 0.0061 (genetic background: wild type).

In the case of SNRTLSNETDAL [ACE2 C-terminal 12 aa], the protein stability index is, setting by setting: under setting [1], 0.7072 ± 0.0038; (genetic background: wild type) 0.701 ± 0.016.

Take SPGYKAYLREER [YSF3 C-terminal 12 aa]: the protein stability index is, setting by setting: under setting [1], 0.722 ± 0.012; (genetic background: wild type) 0.685 ± 0.019.

In the case of SPPLSTSPDSRR [YLR416C C-terminal 12 aa], the protein stability index came out at 0.7198 ± 0.0012 under setting [1] and 0.713 ± 0.029 (genetic background: wild type).

As to SPRLKENEHVTN [MPC54 C-terminal 12 aa], the protein stability index is, setting by setting: under setting [1], 0.693 ± 0.013; (genetic background: wild type) 0.724 ± 0.072.

For the sequence SPYLKHLDSRKQ [CTS2 C-terminal 12 aa], the protein stability index came out at 0.722 ± 0.019 under setting [1] and 0.7 ± 0.045 (genetic background: wild type).

Turning to SQEPQYKLFRGR [MRPL16 C-terminal 12 aa], the protein stability index came to 0.6988 ± 0.0014 under setting [1] and 0.731 ± 0.069 (genetic background: wild type).

Turning to SQNELRFEERLL [INO1 C-terminal 12 aa], the protein stability index under setting [1] was found to be 0.683 ± 0.021 and the protein stability index (genetic background: wild type) is 0.675 ± 0.025.

SRIKWHVGTAYS [HHY1 C-terminal 12 aa] gave a protein stability index under setting [1] of 0.6943 ± 0.0031 and a protein stability index (genetic background: wild type) of 0.6653 ± 0.0066.

For the sequence SRVGRKVATLDQ [YAT2 C-terminal 12 aa], the protein stability index came out at 0.6994 ± 0.0069 under setting [1] and 0.694 ± 0.038 (genetic background: wild type).
